Source: US20130236459A1 (MERRIMACK PHARMACEUTICALS, published 2013)
Read-outs that look alike come from different tables or passages of the source.

Tests used:
Test in all cases: cell-based or functional assay
[1] = target: T1, IGF-1R (receptor for insulin-like growth factor 1), endogenous on human tumor cell lines (human, UniProt P08069 31-1367)
[2] = target: T2, ErbB3 (HER3), endogenous on human tumor cell lines (human, UniProt P21860 20-1342)
[3] = target: T1, IGF-1R (receptor for insulin-like …); remark: listed apart in the source
[4] = target: T2, ErbB3 (HER3), endogenous on human tumor …; remark: listed apart in the source

T1 sequence (P08069 31-1367): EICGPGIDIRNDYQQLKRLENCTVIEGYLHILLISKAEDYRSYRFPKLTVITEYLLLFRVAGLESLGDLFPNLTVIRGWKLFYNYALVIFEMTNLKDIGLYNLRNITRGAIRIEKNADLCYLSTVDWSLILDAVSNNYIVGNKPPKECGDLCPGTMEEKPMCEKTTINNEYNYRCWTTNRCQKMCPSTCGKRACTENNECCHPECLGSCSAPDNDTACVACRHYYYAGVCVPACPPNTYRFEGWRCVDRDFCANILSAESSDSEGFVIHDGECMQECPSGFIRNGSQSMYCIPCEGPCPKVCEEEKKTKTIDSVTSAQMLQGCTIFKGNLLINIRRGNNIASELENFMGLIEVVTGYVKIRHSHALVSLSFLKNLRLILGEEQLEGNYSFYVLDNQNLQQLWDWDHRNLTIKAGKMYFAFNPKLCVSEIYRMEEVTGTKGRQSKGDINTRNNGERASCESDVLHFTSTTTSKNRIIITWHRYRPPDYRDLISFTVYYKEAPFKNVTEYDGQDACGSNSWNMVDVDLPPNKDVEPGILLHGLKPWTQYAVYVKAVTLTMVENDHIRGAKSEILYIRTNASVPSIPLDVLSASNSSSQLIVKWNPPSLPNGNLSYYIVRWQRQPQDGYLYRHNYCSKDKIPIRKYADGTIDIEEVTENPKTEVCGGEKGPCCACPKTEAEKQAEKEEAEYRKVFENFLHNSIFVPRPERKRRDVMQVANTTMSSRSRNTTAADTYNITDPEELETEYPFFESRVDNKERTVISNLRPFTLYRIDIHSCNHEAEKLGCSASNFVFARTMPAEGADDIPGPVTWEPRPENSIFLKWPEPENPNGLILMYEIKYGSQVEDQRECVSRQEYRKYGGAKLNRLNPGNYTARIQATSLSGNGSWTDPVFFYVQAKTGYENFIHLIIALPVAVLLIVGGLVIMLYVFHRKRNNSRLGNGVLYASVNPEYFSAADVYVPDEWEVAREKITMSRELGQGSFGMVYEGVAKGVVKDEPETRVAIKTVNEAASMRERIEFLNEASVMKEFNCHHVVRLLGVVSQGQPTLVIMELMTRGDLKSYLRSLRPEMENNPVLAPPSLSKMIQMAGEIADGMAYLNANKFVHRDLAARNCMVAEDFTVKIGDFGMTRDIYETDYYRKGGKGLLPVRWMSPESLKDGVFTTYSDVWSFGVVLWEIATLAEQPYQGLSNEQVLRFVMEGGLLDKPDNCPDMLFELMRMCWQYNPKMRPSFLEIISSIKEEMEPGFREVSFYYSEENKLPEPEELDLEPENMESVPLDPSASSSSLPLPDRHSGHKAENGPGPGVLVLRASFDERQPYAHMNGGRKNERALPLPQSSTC
T2 sequence (P21860 20-1342 limits assumed): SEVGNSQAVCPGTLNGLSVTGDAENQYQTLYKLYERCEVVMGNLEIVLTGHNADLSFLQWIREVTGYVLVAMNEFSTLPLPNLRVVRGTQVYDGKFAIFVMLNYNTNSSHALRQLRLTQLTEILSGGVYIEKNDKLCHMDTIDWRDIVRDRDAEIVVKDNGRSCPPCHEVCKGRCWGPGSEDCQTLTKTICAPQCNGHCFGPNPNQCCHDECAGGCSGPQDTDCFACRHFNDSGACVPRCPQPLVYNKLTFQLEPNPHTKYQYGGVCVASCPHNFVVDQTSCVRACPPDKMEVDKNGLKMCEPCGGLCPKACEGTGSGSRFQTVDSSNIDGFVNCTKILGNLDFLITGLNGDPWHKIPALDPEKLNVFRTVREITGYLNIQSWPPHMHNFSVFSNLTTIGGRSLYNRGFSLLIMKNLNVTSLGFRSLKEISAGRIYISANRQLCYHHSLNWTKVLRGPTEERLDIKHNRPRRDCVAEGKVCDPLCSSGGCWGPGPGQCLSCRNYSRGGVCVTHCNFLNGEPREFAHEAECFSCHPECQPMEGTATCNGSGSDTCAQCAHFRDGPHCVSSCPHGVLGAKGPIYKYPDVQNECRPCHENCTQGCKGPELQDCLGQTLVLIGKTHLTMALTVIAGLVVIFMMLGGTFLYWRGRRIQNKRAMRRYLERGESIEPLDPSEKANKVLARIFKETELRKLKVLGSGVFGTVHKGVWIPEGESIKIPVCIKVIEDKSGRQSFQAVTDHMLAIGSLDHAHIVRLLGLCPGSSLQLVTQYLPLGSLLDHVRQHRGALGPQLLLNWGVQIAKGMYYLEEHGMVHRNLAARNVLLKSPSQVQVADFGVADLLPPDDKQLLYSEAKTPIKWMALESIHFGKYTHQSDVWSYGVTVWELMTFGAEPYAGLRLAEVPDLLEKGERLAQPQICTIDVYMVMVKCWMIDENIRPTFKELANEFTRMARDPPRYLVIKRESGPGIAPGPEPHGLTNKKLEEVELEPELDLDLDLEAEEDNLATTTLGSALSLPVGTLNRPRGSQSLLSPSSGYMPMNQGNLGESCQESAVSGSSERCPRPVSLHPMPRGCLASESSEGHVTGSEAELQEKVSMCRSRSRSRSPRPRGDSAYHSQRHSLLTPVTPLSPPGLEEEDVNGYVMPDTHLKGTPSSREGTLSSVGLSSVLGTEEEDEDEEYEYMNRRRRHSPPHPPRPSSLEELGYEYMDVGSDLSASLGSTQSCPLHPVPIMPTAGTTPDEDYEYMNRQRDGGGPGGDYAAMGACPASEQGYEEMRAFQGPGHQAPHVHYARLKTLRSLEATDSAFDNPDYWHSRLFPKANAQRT

pIGF1R % Inhibition (BxPC-3) [1] | pIGF1R IC50 (BxPC-3) [1] | pErbB3 % Inhibition (BxPC-3) [2] | pErbB3 IC50 (BxPC-3) [2] | pIGF1R IC50 (BxPC-3) [3] | pErbB3 IC50 (BxPC-3) [4] | Binder
94% | 4.1e-10 M (inferred) | 99% | 1.4e-10 M (inferred) | – | – | M57-G1-M1.3 (bispecific antibody, human IgG1, kappa) heavy: not shown light: DIQLTQSPSSLSASLGDRVTITCRASQGISSYLAWYQQKPGKAPKLLIYARSTRQSGVPSRFSGSGSGTEFTLTISSLQPEDSATYYCQQYWTWPLTFGGGTKVEIKRTVAAPSVFIFPPSDEQLKSGTASVVCLLNNFYPREAKVQWKVDNALQSGNSQESVTEQDSKDSTYSLSSTLTLSKADYEKHKVYACEVTHQGLSSPVTKSFNRGEC
96% | 6.8e-10 M (inferred) | 98% | 2.3e-10 M (inferred) | – | – | M78-G1-C8 (bispecific antibody, human IgG1, kappa) heavy: not shown light: DIQMTQSPSSLSASLGDRVTITCRASQGISSYLAWYQQKPGKAPKLLIYASSTRQSGVPSRFSGSGSGTDFTLTISSLQPEDSGTYYCQQYWAFPLTFGGGTKVEIKRTVAAPSVFIFPPSDEQLKSGTASVVCLLNNFYPREAKVQWKVDNALQSGNSQESVTEQDSKDSTYSLSSTLTLSKADYEKHKVYACEVTHQGLSSPVTKSFNRGEC
95% | 4.2e-10 M (inferred) | 100% | 1.4e-10 M (inferred) | – | – | M78-G1-P6 (bispecific antibody, human IgG1, kappa) heavy: not shown light: DIQMTQSPSSLSASLGDRVTITCRASQGISSYLAWYQQKPGKAPKLLIYASSTRQSGVPSRFSGSGSGTDFTLTISSLQPEDSGTYYCQQYWAFPLTFGGGTKVEIKRTVAAPSVFIFPPSDEQLKSGTASVVCLLNNFYPREAKVQWKVDNALQSGNSQESVTEQDSKDSTYSLSSTLTLSKADYEKHKVYACEVTHQGLSSPVTKSFNRGEC
97% | 5e-10 M (inferred) | 99% | 1.4e-10 M (inferred) | – | – | M78-G1-M1.3 (bispecific antibody, human IgG1, kappa) heavy: not shown light: DIQMTQSPSSLSASLGDRVTITCRASQGISSYLAWYQQKPGKAPKLLIYASSTRQSGVPSRFSGSGSGTDFTLTISSLQPEDSGTYYCQQYWAFPLTFGGGTKVEIKRTVAAPSVFIFPPSDEQLKSGTASVVCLLNNFYPREAKVQWKVDNALQSGNSQESVTEQDSKDSTYSLSSTLTLSKADYEKHKVYACEVTHQGLSSPVTKSFNRGEC
91% | 1.6e-10 M (inferred) | 95% | 3.9e-11 M (inferred) | – | – | P4-G1-P6 (bispecific antibody, human IgG1, kappa) heavy: not shown light: DIQMTQSPSSLSASLGDRVTITCRASQGISSYLAWYQQKPGKAPKLLIYAKSTLQSGVPSRFSGSGSGTDFTLTISSLQPEDSATYYCQQYWTFPLTFGGGTKVEIKRTVAAPSVFIFPPSDEQLKSGTASVVCLLNNFYPREAKVQWKVDNALQSGNSQESVTEQDSKDSTYSLSSTLTLSKADYEKHKVYACEVTHQGLSSPVTKSFNRGEC
92% | 2.5e-10 M (inferred) | 98% | 7.9e-11 M (inferred) | – | – | M57-G1-P6 (bispecific antibody, human IgG1, kappa) heavy: not shown light: DIQLTQSPSSLSASLGDRVTITCRASQGISSYLAWYQQKPGKAPKLLIYARSTRQSGVPSRFSGSGSGTEFTLTISSLQPEDSATYYCQQYWTWPLTFGGGTKVEIKRTVAAPSVFIFPPSDEQLKSGTASVVCLLNNFYPREAKVQWKVDNALQSGNSQESVTEQDSKDSTYSLSSTLTLSKADYEKHKVYACEVTHQGLSSPVTKSFNRGEC
93% | 2.5e-10 M (inferred) | 98% | 6.5e-11 M (inferred) | – | – | M57-G1-C8 (bispecific antibody, human IgG1, kappa) heavy: not shown light: DIQLTQSPSSLSASLGDRVTITCRASQGISSYLAWYQQKPGKAPKLLIYARSTRQSGVPSRFSGSGSGTEFTLTISSLQPEDSATYYCQQYWTWPLTFGGGTKVEIKRTVAAPSVFIFPPSDEQLKSGTASVVCLLNNFYPREAKVQWKVDNALQSGNSQESVTEQDSKDSTYSLSSTLTLSKADYEKHKVYACEVTHQGLSSPVTKSFNRGEC
86% | 3.5e-09 M (inferred) | 115% | 8e-11 M (inferred) | 1.4e-09 M (inferred) | 1e-11 M (inferred) | B60-G1-M78 (bispecific antibody, human IgG1, lambda) heavy: not shown light: SSELTQDPAVSVALGQTVRITCQGDSLRSYYASWYQQKPGQAPVLVIYGKNNRPSGIPDRFSGSSSGNTASLTITGAQAEDEADYYCNSRDWPGNQWVFGGGTKVTVLGQPKAAPSVTLFPPSSEELQANKATLVCLVSDFYPGAVTVAWKADGSPVKVGVETTKPSKQSNNKYAASSYLSLTPEQWKSHRSYSCRVTHEGSTVEKTVAPAECS
85% | 1e-08 M (inferred) | 162% | 1.2e-09 M (inferred) | 4.4e-09 M (inferred) | 2.3e-11 M (inferred) | B60-G1-M57 (bispecific antibody, human IgG1, lambda) heavy: not shown light: SSELTQDPAVSVALGQTVRITCQGDSLRSYYASWYQQKPGQAPVLVIYGKNNRPSGIPDRFSGSSSGNTASLTITGAQAEDEADYYCNSRDWPGNQWVFGGGTKVTVLGQPKAAPSVTLFPPSSEELQANKATLVCLVSDFYPGAVTVAWKADGSPVKVGVETTKPSKQSNNKYAASSYLSLTPEQWKSHRSYSCRVTHEGSTVEKTVAPAECS
93% | 2.4e-09 M (inferred) | 109% | 2.4e-11 M (inferred) | 2.4e-09 M (inferred) | 2.4e-11 M (inferred) | M7-G1-P4 (bispecific antibody, human IgG1, lambda) heavy: not shown light: SSELTQDPAVSVALGQTVRITCQGDSLRSYYASWYQQKPGQAPVLVIYGKNNRPSGIPDRFSGSSSGNTASLTITGAQAEDEADYYCNSRDTPGNKWVFGGGTKVTVIGQPKAAPSVTLFPPSSEELQANKATLVCLVSDFYPGAVTVAWKADGSPVKVGVETTKPSKQSNNKYAASSYLSLTPEQWKSHRSYSCRVTHEGSTVEKTVAPAECS
83% | 8.1e-09 M (inferred) | 88% | 3.1e-10 M (inferred) | – | – | M27-G1-M57 (bispecific antibody, human IgG1, lambda) heavy: not shown light: SSELTQDPAVSVALGQTVRITCQGDSLRSYYASWYQQKPGQAPVLVIYGKNNRPSGIPDRFSGSSSGNTASLTITGAQAEDEADYYCNSRDTPGDQWVFGGGTKVTVLGQPKAAPSVTLFPPSSEELQANKATLVCLVSDFYPGAVTVAWKADGSPVKVGVETTKPSKQSNNKYAASSYLSLTPEQWKSHRSYSCRVTHEGSTVEKTVAPAECS
91% | 7.5e-09 M (inferred) | 179% | 1.5e-10 M (inferred) | – | – | M27/M7-G1-M57 (bispecific antibody, human IgG1, lambda) heavy: not shown light: SSELTQDPAVSVALGQTVRITCQGDSLRSYYASWYQQKPGQAPVLVIYGKNNRPSGIPDRFSGSSSGNTASLTITGAQAEDEADYYCNSRDTPGNKWVFGGGTKVTVIGQPKAAPSVTLFPPSSEELQANKATLVCLVSDFYPGAVTVAWKADGSPVKVGVETTKPSKQSNNKYAASSYLSLTPEQWKSHRSYSCRVTHEGSTVEKTVAPAECS
99% | 1.3e-08 M (inferred) | 111% | 4e-11 M (inferred) | – | – | M27/M7-G1-P4 (bispecific antibody, human IgG1, lambda) heavy: not shown light: SSELTQDPAVSVALGQTVRITCQGDSLRSYYASWYQQKPGQAPVLVIYGKNNRPSGIPDRFSGSSSGNTASLTITGAQAEDEADYYCNSRDTPGNKWVFGGGTKVTVIGQPKAAPSVTLFPPSSEELQANKATLVCLVSDFYPGAVTVAWKADGSPVKVGVETTKPSKQSNNKYAASSYLSLTPEQWKSHRSYSCRVTHEGSTVEKTVAPAECS
87% | 1.4e-09 M (inferred) | 107% | 1.2e-10 M (inferred) | – | – | M27-G1-M78 (bispecific antibody, human IgG1, lambda) heavy: not shown light: SSELTQDPAVSVALGQTVRITCQGDSLRSYYASWYQQKPGQAPVLVIYGKNNRPSGIPDRFSGSSSGNTASLTITGAQAEDEADYYCNSRDTPGDQWVFGGGTKVTVLGQPKAAPSVTLFPPSSEELQANKATLVCLVSDFYPGAVTVAWKADGSPVKVGVETTKPSKQSNNKYAASSYLSLTPEQWKSHRSYSCRVTHEGSTVEKTVAPAECS
82% | 2.1e-08 M (inferred) | 124% | 5.2e-11 M (inferred) | 2.1e-08 M (inferred) | 5.2e-11 M (inferred) | M7-G1-M57 (bispecific antibody, human IgG1, lambda) heavy: not shown light: SSELTQDPAVSVALGQTVRITCQGDSLRSYYASWYQQKPGQAPVLVIYGKNNRPSGIPDRFSGSSSGNTASLTITGAQAEDEADYYCNSRDTPGNKWVFGGGTKVTVIGQPKAAPSVTLFPPSSEELQANKATLVCLVSDFYPGAVTVAWKADGSPVKVGVETTKPSKQSNNKYAASSYLSLTPEQWKSHRSYSCRVTHEGSTVEKTVAPAECS
91% | 1e-09 M (inferred) | 140% | 1.1e-10 M (inferred) | – | – | M27/M7-G1-M78 (bispecific antibody, human IgG1, lambda) heavy: not shown light: SSELTQDPAVSVALGQTVRITCQGDSLRSYYASWYQQKPGQAPVLVIYGKNNRPSGIPDRFSGSSSGNTASLTITGAQAEDEADYYCNSRDTPGNKWVFGGGTKVTVIGQPKAAPSVTLFPPSSEELQANKATLVCLVSDFYPGAVTVAWKADGSPVKVGVETTKPSKQSNNKYAASSYLSLTPEQWKSHRSYSCRVTHEGSTVEKTVAPAECS
88% | 3e-09 M (inferred) | 106% | 1e-10 M (inferred) | – | – | M27-G1-P4 (bispecific antibody, human IgG1, lambda) heavy: not shown light: SSELTQDPAVSVALGQTVRITCQGDSLRSYYASWYQQKPGQAPVLVIYGKNNRPSGIPDRFSGSSSGNTASLTITGAQAEDEADYYCNSRDTPGDQWVFGGGTKVTVLGQPKAAPSVTLFPPSSEELQANKATLVCLVSDFYPGAVTVAWKADGSPVKVGVETTKPSKQSNNKYAASSYLSLTPEQWKSHRSYSCRVTHEGSTVEKTVAPAECS
